Values of other authors in PMC8160820.

Target: PEDF-R (Homo sapiens) (UniProt Q96AD5)
Sequence of UniProt Q96AD5 (Q96AD5 whole entry): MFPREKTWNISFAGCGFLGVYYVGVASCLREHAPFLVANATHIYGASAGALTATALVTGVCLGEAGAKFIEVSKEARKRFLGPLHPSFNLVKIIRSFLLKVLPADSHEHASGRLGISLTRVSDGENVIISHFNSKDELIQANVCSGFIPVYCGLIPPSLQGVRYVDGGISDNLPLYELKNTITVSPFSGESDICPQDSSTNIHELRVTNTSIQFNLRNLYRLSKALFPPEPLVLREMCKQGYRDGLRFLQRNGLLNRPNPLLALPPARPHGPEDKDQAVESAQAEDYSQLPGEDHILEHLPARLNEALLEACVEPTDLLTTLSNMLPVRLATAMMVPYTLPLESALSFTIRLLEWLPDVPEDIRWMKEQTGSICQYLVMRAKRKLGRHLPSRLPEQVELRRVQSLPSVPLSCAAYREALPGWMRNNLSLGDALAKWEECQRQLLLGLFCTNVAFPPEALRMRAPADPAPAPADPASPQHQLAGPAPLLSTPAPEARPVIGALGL

- Kd: 3 nM
Substance: PEDF (from UniProt P36955)
